± gives the standard deviation of the averaged measurements.
Tested on: Saccharomyces cerevisiae
Assay: protein stability index of tFT-peptide fusion (C-terminal peptide) (PSI (0-1 scale)); higher = more stable (slower turnover)
Conditions: temperature: 30 C
Procedure: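 MPS profiling in S. cerevisiae of the yeast C-terminome library: the last 12 aa of each annotated ORF are fused to the C-terminus of a sfGFP-mCherry timer, after a GGGS linker. Cells are FACS-sorted into 8 mCherry/sfGFP bins and deep-sequenced. PSI runs from 0 (unstable) to 1 (stable); wild type and das1Δ backgrounds, two technical replicates each.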

[1] = genetic background: das1 deletion

Row | Sequence | protein stability index [1] | protein stability index (genetic background: wild type)
1 | ITRDESTATYKY [RTT101 C-terminal 12 aa] | 0.695 ± 0.0095 | 0.6686 ± 0.0022
2 | VFLIISQHSLHS [YBL113W-A C-terminal 12 aa] | 0.6652 ± 0.0044 | 0.646 ± 0.029
3 | ITQARANTWLVV [YOR024W C-terminal 12 aa] | 0.654 ± 0.02 | 0.648 ± 0.0088
4 | GAIYVLQWANPT [YBR287W C-terminal 12 aa] | 0.667 ± 0.025 | 0.662 ± 0.061
5 | RPFYKRMFTKEK [HXT5 C-terminal 12 aa] | 0.7313 ± 0.0058 | 0.732 ± 0.033
6 | KMFAKYRENSRI [DYN3 C-terminal 12 aa] | 0.692 ± 0.017 | 0.667 ± 0.0047
7 | ASLVFPKEKQNV [APC4 C-terminal 12 aa] | 0.718 ± 0.034 | 0.6902 ± 0.00072
8 | NTDHKAGRSHLQ [PTC2 C-terminal 12 aa] | 0.713 ± 0.013 | 0.668 ± 0.038
9 | VNGGSKKRKAND [RMI1 C-terminal 12 aa] | 0.664 ± 0.016 | 0.663 ± 0.0079
10 | SGIKEFFDNYKS [ARO9 C-terminal 12 aa] | 0.712 ± 0.027 | 0.716 ± 0.025
11 | TATSSSIILSDK [SSN2 C-terminal 12 aa] | 0.713 ± 0.032 | 0.665 ± 0.045
12 | YNITQQILQFLH [VAC8 C-terminal 12 aa] | 0.701 ± 0.024 | 0.327 ± 0.0072
13 | REVLEQEGRRIE [NBL1 C-terminal 12 aa] | 0.69 ± 0.0073 | 0.693 ± 0.054
14 | CVWESMSNWLQK [YEL034C-A C-terminal 12 aa] | 0.7238 ± 0.00042 | 0.724 ± 0.015
15 | LSAETGIRGEGE [YIL100W C-terminal 12 aa] | 0.6849 ± 0.0034 | 0.71 ± 0.029
16 | EDGRPPQNDFKE [TIM22 C-terminal 12 aa] | 0.699 ± 0.0092 | 0.734 ± 0.057
17 | LIEKNFLSSHAG [YJR071W C-terminal 12 aa] | 0.7159 ± 0.0042 | 0.708 ± 0.022
18 | TIITKYEMLVRT [YOL134C C-terminal 12 aa] | 0.52 ± 0.015 | 0.5399 ± 0.0028
19 | LISFGMGNTQVI [CLN2 C-terminal 12 aa] | 0.699 ± 0.031 | 0.6846 ± 0.004
20 | GMISKSLKIPKP [CHO1 C-terminal 12 aa] | 0.661 ± 0.0085 | 0.698 ± 0.0082
21 | IAVNYGQKDLIE [BRR1 C-terminal 12 aa] | 0.697 ± 0.033 | 0.669 ± 0.014

Row | Sequence | protein stability index [1] | protein stability index (genetic background: wild type)
22 | TGRDMMKSAVGF [SRO77 C-terminal 12 aa] | 0.714 ± 0.015 | 0.661 ± 0.016
23 | TSAGSNIFSTGQ [BBP1 C-terminal 12 aa] | 0.699 ± 0.011 | 0.752 ± 0.043
24 | ELIISKREIEKE [GEA1 C-terminal 12 aa] | 0.724 ± 0.022 | 0.731 ± 0.079
25 | MQRVSTQHEKET [PMA1 C-terminal 12 aa] | 0.715 ± 0.0091 | 0.698 ± 0.022
26 | KPSAKPVDLSKL [DAL7 C-terminal 12 aa] | 0.759 ± 0.011 | 0.846 ± 0.069
27 | KKAPYFLPAPHT [FMO1 C-terminal 12 aa] | 0.7 ± 0.012 | 0.715 ± 0.0093
28 | GAGVVAAAAMLL [TIR1 C-terminal 12 aa] | 0.7182 ± 0.0061 | 0.713 ± 0.016
29 | IALAEHRVERSN [CLB3 C-terminal 12 aa] | 0.718 ± 0.05 | 0.701 ± 0.033
30 | WTWLDGKFPTFA [GRE3 C-terminal 12 aa] | 0.751 ± 0.023 | 0.7093 ± 0.0009
31 | VLAILFYPAWVE [YGR160W C-terminal 12 aa] | 0.5 ± 0.0098 | 0.529 ± 0.0053
32 | MEDILDETTELD [ATG40 C-terminal 12 aa] | 0.7155 ± 0.0025 | 0.715 ± 0.072
33 | SGEAAEEAEDEE [RPS9B C-terminal 12 aa] | 0.652 ± 0.023 | 0.664 ± 0.039
34 | QGYKPNQSDRYY [PIN2 C-terminal 12 aa] | 0.68 ± 0.013 | 0.711 ± 0.044
35 | DFQNCFPRQRIL [DFP2 C-terminal 12 aa] | 0.7035 ± 0.0037 | 0.2848 ± 0.0028
36 | INFHSGSIFDAC [ENV11 C-terminal 12 aa] | 0.717 ± 0.029 | 0.7009 ± 0.0015
37 | LLRKHVFPSVPK [VFA1 C-terminal 12 aa] | 0.732 ± 0.026 | 0.738 ± 0.031
38 | DDNDTSAYYEDN [GSY1 C-terminal 12 aa] | 0.689 ± 0.0083 | 0.803 ± 0.073
39 | HLGDPLWNFSVE [TMA20 C-terminal 12 aa] | 0.7244 ± 0.0043 | 0.707 ± 0.01
40 | EKQYVKILDDTH [CSF1 C-terminal 12 aa] | 0.716 ± 0.011 | 0.695 ± 0.037
41 | LEEVEVNDFIQE [SWM2 C-terminal 12 aa] | 0.7099 ± 0.0036 | 0.682 ± 0.02
42 | PNEFLRDQSTDI [APL5 C-terminal 12 aa] | 0.707 ± 0.031 | 0.66 ± 0.02

Row | Sequence | protein stability index [1] | protein stability index (genetic background: wild type)
43 | GHNDGDINVWTL [CAF4 C-terminal 12 aa] | 0.7185 ± 0.0052 | 0.7273 ± 0.0028
44 | ESLSNEAALKAN [RPO31 C-terminal 12 aa] | 0.676 ± 0.027 | 0.397 ± 0.017
45 | TSGFCSLETSAE [YER023C-A C-terminal 12 aa] | 0.697 ± 0.0079 | 0.735 ± 0.057
46 | NTGSKKSVPTSS [AQY3 C-terminal 12 aa] | 0.7037 ± 0.0017 | 0.732 ± 0.068
47 | LHENQLLKWLSK [RRN5 C-terminal 12 aa] | 0.72567 ± 0.00036 | 0.7 ± 0.008
48 | QIEWVDINRVTY [RAD50 C-terminal 12 aa] | 0.732 ± 0.014 | 0.735 ± 0.052
49 | LLSAILDPSKSK [MED11 C-terminal 12 aa] | 0.709 ± 0.021 | 0.699 ± 0.046
50 | DSTAPKPIPGKE [YKL030W C-terminal 12 aa] | 0.68 ± 0.0037 | 0.663 ± 0.009
51 | QTNSKPAAVSTN [PLN1 C-terminal 12 aa] | 0.6745 ± 0.003 | 0.668 ± 0.02
52 | PLSYDPLGNLIR [TSR3 C-terminal 12 aa] | 0.7339 ± 0.0027 | 0.728 ± 0.061
53 | ASIGSDIVNNIF [PIN3 C-terminal 12 aa] | 0.712 ± 0.032 | 0.711 ± 0.04
54 | KRTKTKITSNNG [YBR190W C-terminal 12 aa] | 0.711 ± 0.012 | 0.69 ± 0.018
55 | QGPRPGNWDQED [CCT8 C-terminal 12 aa] | 0.7177 ± 0.0017 | 0.678 ± 0.016
56 | RRQMGIPTISQV [FHN1 C-terminal 12 aa] | 0.681 ± 0.016 | 0.6838 ± 0.0048
57 | PIDPKAFTFDSR [YCL012C C-terminal 12 aa] | 0.73549 ± 0.00064 | 0.73 ± 0.016
58 | YMMNSQSPRGKI [POM34 C-terminal 12 aa] | 0.71 ± 0.0093 | 0.732 ± 0.074
59 | RCGALSEKLVFL [FMT1 C-terminal 12 aa] | 0.694 ± 0.011 | 0.697 ± 0.013
60 | PKSFVPRDIEKK [YGR265W C-terminal 12 aa] | 0.695 ± 0.018 | 0.701 ± 0.056
61 | IQKLNKVLEDSI [ATP5 C-terminal 12 aa] | 0.6748 ± 0.0023 | 0.675 ± 0.02
62 | KLEKKQSERSTH [STE7 C-terminal 12 aa] | 0.7002 ± 0.0013 | 0.769 ± 0.067
63 | ILPIHQEDPANR [MEP1 C-terminal 12 aa] | 0.701 ± 0.011 | 0.686 ± 0.042

Row | Sequence | protein stability index [1] | protein stability index (genetic background: wild type)
64 | FVYERMKWNFGI [LEU5 C-terminal 12 aa] | 0.7059 ± 0.0044 | 0.275 ± 0.025
65 | RKDEHIVQNIIN [YGR164W C-terminal 12 aa] | 0.6993 ± 0.0033 | 0.681 ± 0.029
66 | LKTPQEYESKAK [BOL1 C-terminal 12 aa] | 0.702 ± 0.02 | 0.753 ± 0.069
67 | VPLKEELFPSSS [COX6 C-terminal 12 aa] | 0.718 ± 0.025 | 0.674 ± 0.0019
68 | QLKKSKVSVELE [MAK11 C-terminal 12 aa] | 0.6803 ± 0.0023 | 0.687 ± 0.047
69 | QFQTLNNLYFAQ [IME4 C-terminal 12 aa] | 0.715 ± 0.02 | 0.673 ± 0.044
70 | LRLKGNAKAPGA [CLC1 C-terminal 12 aa] | 0.70418 ± 0.00015 | 0.729 ± 0.012
71 | QRELKKVDGTPI [RCI50 C-terminal 12 aa] | 0.6851 ± 0.0065 | 0.741 ± 0.0098
72 | KVCVCMTINSYN [YDR154C C-terminal 12 aa] | 0.585 ± 0.027 | 0.583 ± 0.018
73 | AKAQSQALVTGM [PCL6 C-terminal 12 aa] | 0.6806 ± 0.0011 | 0.685 ± 0.035
74 | LIDSYCLGGESR [YPL034W C-terminal 12 aa] | 0.688 ± 0.018 | 0.697 ± 0.039
75 | IEKNHAKFTDLT [CSH1 C-terminal 12 aa] | 0.7074 ± 0.0034 | 0.731 ± 0.017
76 | IDMLKMSNAEEY [YLR012C C-terminal 12 aa] | 0.672 ± 0.015 | 0.6642 ± 0.0041
77 | ALHSEEASFHSL [AIM21 C-terminal 12 aa] | 0.709 ± 0.012 | 0.7 ± 0.021
78 | GIVPGDCLQEYD [FUS1 C-terminal 12 aa] | 0.702 ± 0.0059 | 0.685 ± 0.016
79 | SLKNYHNNTAQA [DBP6 C-terminal 12 aa] | 0.688 ± 0.031 | 0.68 ± 0.0075
80 | PVGAGNEPINPE [URN1 C-terminal 12 aa] | 0.684 ± 0.013 | 0.704 ± 0.074
81 | NRSSKIVSIRED [CPR8 C-terminal 12 aa] | 0.702 ± 0.03 | 0.714 ± 0.028
82 | YIVECIKNVLTK [APL3 C-terminal 12 aa] | 0.686 ± 0.038 | 0.698 ± 0.018

From the supplement of paper PMC10724198
